Experiment in all cases: cell-based or functional assay
Test [1] deals with HIV-1 93UG077 envelope glycoprotein (Env) on pseudovirus (HIV-1).
The target in test [2] is HIV-1 CMU02 envelope glycoprotein (Env) on pseudovirus (HIV-1).
Test [3] concerns the target HIV-1 Env of isolate 92UG046 (clade D pseudovirus) (HIV-1).
The target of test [4] is HIV-1 Env of isolate 98CN006 (CRF08 BC) (HIV-1 isolate 98CN006).
Test [5] addresses HIV-1 Env of isolate APV_13, clade B, on pseudovirus (HIV-1).
The target in test [6] is HIV-1 Env of isolate APV_17, clade B, on pseudovirus (HIV-1).
For test [7], the target named is HIV-1 Env of isolate MGRM-Chronic-B-003, clade B, on pseudovirus (HIV-1).
Test [8] addresses HIV-1 Env of isolate MGRM-D-013 (clade D pseudovirus) (HIV-1).
Test [9] has as its target HIV-1 Env of isolate MGRM-D-022 (clade D pseudovirus) (HIV-1).
The target of test [10] is HIV-1 Env of isolate MGRM-D-026 (clade D pseudovirus) (HIV-1).
Test [11] deals with HIV-1 Env of isolate MGRM-D-029 (clade D pseudovirus) (HIV-1).
For test [12], the target named is HIV-1 Env of pseudovirus MGRM-AG-003 (clade CRF_AG) (HIV-1).
The target of test [13] is HIV-1 Env of pseudovirus MGRM-Chronic-B-017 (HIV-1).
Test [14] deals with HIV-1 Env of pseudovirus MGRM-Chronic-B-018 (HIV-1).
Test [15] addresses HIV-1 Env of pseudovirus MGRM-Chronic-B-020 (HIV-1).
The target in test [16] is HIV-1 Env of pseudovirus MGRM-G-025 (HIV-1, clade G isolate MGRM-G-025).
In test [17] the target is HIV-1 IAVI-C22 envelope glycoprotein (Env) on pseudovirus (HIV-1).
Test [18] concerns the target HIV-1 envelope glycoprotein (Env) of isolate 92UG037, clade A (HIV-1).

The IC50 is the concentration at which inhibition is half-maximal. Read a low IC50 as greater potency. In the case of 1495_C14 (PGC14) (antibody), the figures for the IC50, pseudovirus neutralization in [1], in test [2] and in test [17] were greater than 50 µg/mL, greater than 50 µg/mL and 9.5 µg/mL, respectively. Besides, the IC50 (µg/ml), pseudovirus neutralization in [3], in test [4], in test [5], in test [6], in [7] and in [8] was greater than 50 µg/mL throughout. In addition, the IC50 (µg/ml), pseudovirus neutralization in test [9], in test [10], in [11], in [13], in test [14] and in [15] was greater than 50 µg/mL throughout. The IC50 (µg/ml), pseudovirus neutralization in test [16] and in test [18] was greater than 50 µg/mL in each case. The same substance returned an IC50 in [12] greater than 50 µg/mL.
For b12 (antibody), the IC50, pseudovirus neutralization in [1] stood at 41.1 µg/mL; in [2], 4.25 µg/mL; in test [17] it was 3.6 µg/mL. For the same substance, the IC50 (µg/ml), pseudovirus neutralization in [3] was 0.07 µg/mL; in [4] it was greater than 50 µg/mL; in [5], greater than 50 µg/mL; in test [6], greater than 50 µg/mL; in [7], greater than 50 µg/mL; in [8], greater than 50 µg/mL. For the same substance, the IC50 (µg/ml), pseudovirus neutralization in test [9] was 17.6 µg/mL; in test [10] it was 1.55 µg/mL; in [11], greater than 50 µg/mL; in test [13], 2.59 µg/mL; in test [14], 0.66 µg/mL; in test [15] it was 6.16 µg/mL. Moreover, the IC50 (µg/ml), pseudovirus neutralization in [16] and in [18] was greater than 50 µg/mL each time. The half-inhibitory concentration (IC50) in test [12] is greater than 50 µg/mL.
